Reference: patent US20130225506A1 (POLYPHOR, published 2013)
Square brackets hold non-standard residues; d marks the D form. Primed or numbered codes have the meaning given here. dPro(cis-4-NH2) = N[C@H]1CN[C@@H](C(=O)O)C1; dPro(4S-NH2) = N[C@@H]1CN[C@@H](C(=O)O)C1; 1Nal = N[C@@H](Cc1cccc2ccccc12)C(=O)O; 2Nal = N[C@@H](Cc1ccc2ccccc2c1)C(=O)O; Pro(3S-OH) = O=C(O)[C@H]1NCC[C@@H]1O; dCit = NC(=O)NCCC[C@@H](N)C(=O)O; Tic = O=C(O)[C@@H]1Cc2ccccc2CN1; Agb = N=C(N)NCC[C@H](N)C(=O)O; Agp = N=C(N)NC[C@H](N)C(=O)O; Orn = NCCC[C@H](N)C(=O)O; dPip′ = not defined here; Dab = NCC[C@H](N)C(=O)O; Pip′ = not defined here

B1: cyclo(-Ile-^DArg-Arg-Ile-^DPro-Thr-) (peptide)
peptide: cyclo(I[dR]RI[dP]T)
SMILES: CC[C@H](C)[C@@H]1NC(=O)[C@H]([C@@H](C)O)NC(=O)[C@H]2CCCN2C(=O)[C@H]([C@@H](C)CC)NC(=O)[C@H](CCCNC(=N)N)NC(=O)[C@@H](CCCNC(=N)N)NC1=O
B2: cyclo(-1Nal-^DArg-Arg-Trp-^DPro-Thr-) (peptide)
peptide: cyclo([1Nal][dR]RW[dP]T)
SMILES: C[C@@H](O)[C@@H]1NC(=O)[C@H]2CCCN2C(=O)[C@H](Cc2c[nH]c3ccccc23)NC(=O)[C@H](CCCNC(=N)N)NC(=O)[C@@H](CCCNC(=N)N)NC(=O)[C@H](Cc2cccc3ccccc23)NC1=O
B3: cyclo(-Ile-^DLys-Arg-Trp-^DPro-Thr-) (peptide)
peptide: cyclo(I[dK]RW[dP]T)
SMILES: CC[C@H](C)[C@@H]1NC(=O)[C@H]([C@@H](C)O)NC(=O)[C@H]2CCCN2C(=O)[C@H](Cc2c[nH]c3ccccc23)NC(=O)[C@H](CCCNC(=N)N)NC(=O)[C@@H](CCCCN)NC1=O
B4: cyclo(-Ile-^DHis-Arg-Trp-^DPro-Thr-) (peptide)
peptide: cyclo(I[dH]RW[dP]T)
SMILES: CC[C@H](C)[C@@H]1NC(=O)[C@H]([C@@H](C)O)NC(=O)[C@H]2CCCN2C(=O)[C@H](Cc2c[nH]c3ccccc23)NC(=O)[C@H](CCCNC(=N)N)NC(=O)[C@@H](Cc2c[nH]cn2)NC1=O
B5: cyclo(-Ile-^DCit-Arg-Trp-^DPro-Thr-) (peptide)
peptide: cyclo(I[dCit]RW[dP]T)
SMILES: CC[C@H](C)[C@@H]1NC(=O)[C@H]([C@@H](C)O)NC(=O)[C@H]2CCCN2C(=O)[C@H](Cc2c[nH]c3ccccc23)NC(=O)[C@H](CCCNC(=N)N)NC(=O)[C@@H](CCCNC(N)=O)NC1=O
B6: cyclo(-Ile-^DArg-Arg-2Nal-^DPro-Thr-) (peptide)
peptide: cyclo(I[dR]R[2Nal][dP]T)
SMILES: CC[C@H](C)[C@@H]1NC(=O)[C@H]([C@@H](C)O)NC(=O)[C@H]2CCCN2C(=O)[C@H](Cc2ccc3ccccc3c2)NC(=O)[C@H](CCCNC(=N)N)NC(=O)[C@@H](CCCNC(=N)N)NC1=O
B7: cyclo(-Ile-^DArg-Arg-1Nal-^DPro-Thr-) (peptide)
peptide: cyclo(I[dR]R[1Nal][dP]T)
SMILES: CC[C@H](C)[C@@H]1NC(=O)[C@H]([C@@H](C)O)NC(=O)[C@H]2CCCN2C(=O)[C@H](Cc2cccc3ccccc23)NC(=O)[C@H](CCCNC(=N)N)NC(=O)[C@@H](CCCNC(=N)N)NC1=O
B8: cyclo(-Ile-^DArg-Trp-Arg-^DPro-Thr-) (peptide)
peptide: cyclo(I[dR]WR[dP]T)
SMILES: CC[C@H](C)[C@@H]1NC(=O)[C@H]([C@@H](C)O)NC(=O)[C@H]2CCCN2C(=O)[C@H](CCCNC(=N)N)NC(=O)[C@H](Cc2c[nH]c3ccccc23)NC(=O)[C@@H](CCCNC(=N)N)NC1=O
B9: cyclo(-Ile-^DArg-Arg-Trp-^DPro-Thr-) (peptide)
peptide: cyclo(I[dR]RW[dP]T)
SMILES: CC[C@H](C)[C@@H]1NC(=O)[C@H]([C@@H](C)O)NC(=O)[C@H]2CCCN2C(=O)[C@H](Cc2c[nH]c3ccccc23)NC(=O)[C@H](CCCNC(=N)N)NC(=O)[C@@H](CCCNC(=N)N)NC1=O
B10: cyclo(-Thr-^DArg-Trp-Arg-^DPro-Thr-) (peptide)
peptide: cyclo(T[dR]WR[dP]T)
SMILES: C[C@@H](O)[C@@H]1NC(=O)[C@H]([C@@H](C)O)NC(=O)[C@H]2CCCN2C(=O)[C@H](CCCNC(=N)N)NC(=O)[C@H](Cc2c[nH]c3ccccc23)NC(=O)[C@@H](CCCNC(=N)N)NC1=O
B11: cyclo(-Ile-^DArg-Arg-Tyr-^DPro-Thr-) (peptide)
peptide: cyclo(I[dR]RY[dP]T)
SMILES: CC[C@H](C)[C@@H]1NC(=O)[C@H]([C@@H](C)O)NC(=O)[C@H]2CCCN2C(=O)[C@H](Cc2ccc(O)cc2)NC(=O)[C@H](CCCNC(=N)N)NC(=O)[C@@H](CCCNC(=N)N)NC1=O
B12: cyclo(-Trp-^DArg-Arg-Trp-^DPro-Thr-) (peptide)
peptide: cyclo(W[dR]RW[dP]T)
SMILES: C[C@@H](O)[C@@H]1NC(=O)[C@H]2CCCN2C(=O)[C@H](Cc2c[nH]c3ccccc23)NC(=O)[C@H](CCCNC(=N)N)NC(=O)[C@@H](CCCNC(=N)N)NC(=O)[C@H](Cc2c[nH]c3ccccc23)NC1=O
B13: cyclo(-Ile-^DArg-Arg-Trp-^DPro-Pro((3S)OH)-) (peptide)
peptide: cyclo(I[dR]RW[dP][Pro(3S-OH)])
SMILES: CC[C@H](C)[C@@H]1NC(=O)[C@@H]2[C@@H](O)CCN2C(=O)[C@H]2CCCN2C(=O)[C@H](Cc2c[nH]c3ccccc23)NC(=O)[C@H](CCCNC(=N)N)NC(=O)[C@@H](CCCNC(=N)N)NC1=O
B14: cyclo(-Ile-^DArg-Arg-Trp-^DPro-Ser-) (peptide)
peptide: cyclo(I[dR]RW[dP]S)
SMILES: CC[C@H](C)[C@@H]1NC(=O)[C@H](CO)NC(=O)[C@H]2CCCN2C(=O)[C@H](Cc2c[nH]c3ccccc23)NC(=O)[C@H](CCCNC(=N)N)NC(=O)[C@@H](CCCNC(=N)N)NC1=O
B15: cyclo(-Ile-^DArg-Agp-Trp-^DPro-Thr-) (peptide)
peptide: cyclo(I[dR][Agp]W[dP]T)
SMILES: CC[C@H](C)[C@@H]1NC(=O)[C@H]([C@@H](C)O)NC(=O)[C@H]2CCCN2C(=O)[C@H](Cc2c[nH]c3ccccc23)NC(=O)[C@H](CNC(=N)N)NC(=O)[C@@H](CCCNC(=N)N)NC1=O
B16: cyclo(-Ile-^DArg-Agb-Trp-^DPro-Thr-) (peptide)
peptide: cyclo(I[dR][Agb]W[dP]T)
SMILES: CC[C@H](C)[C@@H]1NC(=O)[C@H]([C@@H](C)O)NC(=O)[C@H]2CCCN2C(=O)[C@H](Cc2c[nH]c3ccccc23)NC(=O)[C@H](CCNC(=N)N)NC(=O)[C@@H](CCCNC(=N)N)NC1=O
B17: cyclo(-Trp-^DPhe-Trp-Arg-^DPro((4S)NH2)-Tic-) (peptide)
peptide: cyclo(W[dF]WR[dPro(4S-NH2)][Tic])
SMILES: N=C(N)NCCC[C@@H]1NC(=O)[C@H](Cc2c[nH]c3ccccc23)NC(=O)[C@@H](Cc2ccccc2)NC(=O)[C@H](Cc2c[nH]c3ccccc23)NC(=O)[C@@H]2Cc3ccccc3CN2C(=O)[C@H]2C[C@H](N)CN2C1=O
B18: cyclo(-Trp-^DPhe-Trp-Arg-^DPro((4R)NH2)-Tic-) (peptide)
peptide: cyclo(W[dF]WR[dPro(cis-4-NH2)][Tic])
SMILES: N=C(N)NCCC[C@@H]1NC(=O)[C@H](Cc2c[nH]c3ccccc23)NC(=O)[C@@H](Cc2ccccc2)NC(=O)[C@H](Cc2c[nH]c3ccccc23)NC(=O)[C@@H]2Cc3ccccc3CN2C(=O)[C@H]2C[C@@H](N)CN2C1=O
B19: cyclo(-Ala-^DPhe-Trp-Arg-^DPro((4R)NH2)-Tic-) (peptide)
peptide: cyclo(A[dF]WR[dPro(cis-4-NH2)][Tic])
SMILES: C[C@@H]1NC(=O)[C@@H]2Cc3ccccc3CN2C(=O)[C@H]2C[C@@H](N)CN2C(=O)[C@H](CCCNC(=N)N)NC(=O)[C@H](Cc2c[nH]c3ccccc23)NC(=O)[C@@H](Cc2ccccc2)NC1=O
B20: cyclo(-Tyr-^DPhe-Trp-Arg-^DPro((4R)NH2)-Tic-) (peptide)
peptide: cyclo(Y[dF]WR[dPro(cis-4-NH2)][Tic])
SMILES: N=C(N)NCCC[C@@H]1NC(=O)[C@H](Cc2c[nH]c3ccccc23)NC(=O)[C@@H](Cc2ccccc2)NC(=O)[C@H](Cc2ccc(O)cc2)NC(=O)[C@@H]2Cc3ccccc3CN2C(=O)[C@H]2C[C@@H](N)CN2C1=O
B21: cyclo(-Trp-^DPhe-Trp-Orn-^DPro((4R)NH2)-Tic-) (peptide)
peptide: cyclo(W[dF]W[Orn][dPro(cis-4-NH2)][Tic])
SMILES: NCCC[C@@H]1NC(=O)[C@H](Cc2c[nH]c3ccccc23)NC(=O)[C@@H](Cc2ccccc2)NC(=O)[C@H](Cc2c[nH]c3ccccc23)NC(=O)[C@@H]2Cc3ccccc3CN2C(=O)[C@H]2C[C@@H](N)CN2C1=O
B22: cyclo(-Ile-^DArg-Lys-Trp-^DPro-Thr-) (peptide)
peptide: cyclo(I[dR]KW[dP]T)
SMILES: CC[C@H](C)[C@@H]1NC(=O)[C@H]([C@@H](C)O)NC(=O)[C@H]2CCCN2C(=O)[C@H](Cc2c[nH]c3ccccc23)NC(=O)[C@H](CCCCN)NC(=O)[C@@H](CCCNC(=N)N)NC1=O
B23: cyclo(-Trp-^DPhe-Trp-Dab-^DPro((4R)NH2)-Tic-) (peptide)
peptide: cyclo(W[dF]W[Dab][dPro(cis-4-NH2)][Tic])
SMILES: NCC[C@@H]1NC(=O)[C@H](Cc2c[nH]c3ccccc23)NC(=O)[C@@H](Cc2ccccc2)NC(=O)[C@H](Cc2c[nH]c3ccccc23)NC(=O)[C@@H]2Cc3ccccc3CN2C(=O)[C@H]2C[C@@H](N)CN2C1=O
B24: cyclo(-Trp-^DPhe-Trp-Lys-^DPro((4R)NH2)-Tic-) (peptide)
peptide: cyclo(W[dF]WK[dPro(cis-4-NH2)][Tic])
SMILES: NCCCC[C@@H]1NC(=O)[C@H](Cc2c[nH]c3ccccc23)NC(=O)[C@@H](Cc2ccccc2)NC(=O)[C@H](Cc2c[nH]c3ccccc23)NC(=O)[C@@H]2Cc3ccccc3CN2C(=O)[C@H]2C[C@@H](N)CN2C1=O
B25: cyclo(-Trp-^DPhe-Trp-His-^DPro((4R)NH2)-Tic-) (peptide)
peptide: cyclo(W[dF]WH[dPro(cis-4-NH2)][Tic])
SMILES: N[C@@H]1C[C@@H]2C(=O)N3Cc4ccccc4C[C@H]3C(=O)N[C@@H](Cc3c[nH]c4ccccc34)C(=O)N[C@H](Cc3ccccc3)C(=O)N[C@@H](Cc3c[nH]c4ccccc34)C(=O)N[C@@H](Cc3c[nH]cn3)C(=O)N2C1
B26: cyclo(-Arg-^DPhe-Trp-Arg-^DPro((4R)NH2)-Tic-) (peptide)
peptide: cyclo(R[dF]WR[dPro(cis-4-NH2)][Tic])
SMILES: N=C(N)NCCC[C@@H]1NC(=O)[C@@H]2Cc3ccccc3CN2C(=O)[C@H]2C[C@@H](N)CN2C(=O)[C@H](CCCNC(=N)N)NC(=O)[C@H](Cc2c[nH]c3ccccc23)NC(=O)[C@@H](Cc2ccccc2)NC1=O

biological target: chemokine receptor CXCR7 (UniProt P25106 1-362, limits assumed); assay: cell-based or functional assay
Sequence (P25106 whole entry): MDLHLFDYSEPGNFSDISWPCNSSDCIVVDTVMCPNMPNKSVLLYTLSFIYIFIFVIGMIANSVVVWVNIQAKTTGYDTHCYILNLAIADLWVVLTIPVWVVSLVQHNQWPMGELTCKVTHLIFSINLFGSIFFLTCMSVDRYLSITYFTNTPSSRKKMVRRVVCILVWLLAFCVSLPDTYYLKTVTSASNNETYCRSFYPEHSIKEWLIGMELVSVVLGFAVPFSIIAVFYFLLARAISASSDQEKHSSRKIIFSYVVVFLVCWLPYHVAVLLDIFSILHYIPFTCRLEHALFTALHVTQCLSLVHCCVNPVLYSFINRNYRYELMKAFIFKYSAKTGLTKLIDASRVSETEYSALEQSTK

Binder	β-Arrestin EC50
B1	79.7 nM
B2	28.5 nM
B3	86.7 nM
B4	546 nM
B5	472 nM
cyclo(I[dR]RW[dPip′]T) [cyclo(-Ile-^DArg-Arg-Trp-^DPip-Thr-)]	0.1 nM
B6	0.4 nM
B7	17.9 nM
B8	62.5 nM
B9	6.7 nM
B10	17.2 nM
B11	83.7 nM
B12	538 nM
B13	123 nM
B14	12.8 nM
B15	90.5 nM
B16	22.3 nM
B17	17.5 nM
B18	6.1 nM
B19	322 nM
B20	20.9 nM
B21	26.1 nM
B22	78.7 nM
B23	13.6 nM
B24	138 nM
B25	20.4 nM
B26	248 nM
cyclo([Pip′][dF]WR[dPro(cis-4-NH2)][Tic]) [cyclo(-Pip-^DPhe-Trp-Arg-^DPro((4R)NH2)-Tic-)]	882 nM
